Experiment: yeast display, Sf9 membrane polyspecificity reagent, FACS + sequencing; frameworks hold sequencing errors
How it was run: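 Galactose-induced (36–48 hours) yeast carrying a synthetic nanobody display library were exposed to 10% biotinylated, detergent-solubilized Sf9 membrane reagent at 4 °C for 1 hour. FACS followed streptavidin microbead enrichment, using low and high (top ~1%) gates for expression (anti-HA) and reagent binding (streptavidin). Colony PCR, MiSeq 2 × 250 sequencing and CDR-length filtering followed. Labels for polyreactivity reflect the gate of origin.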
In the case of “QVQLVESGGGLVQAGGSLRLSCAASGLTLRCNTMGWYRQAPGKERELVADITASAGSTYYADSVKGRFTISRDNAKNTVYLQMISLKPEDTAVYYCAARVYIAYISMDHWGQGTQVTVSS”, the “polyreactivity (PSR sort gate)” value is reported as “low polyreactivity”.
With “QVQLVESGGGLVQAGGSLRLSCAASGLTLRRYAMGWYRQAPGKERELVASINSGTSTKYADSVKGRFTISRDNAKNTVYLQMNSLKPEDTAVYYCAAAGYFPTAGSRRAYYYWGQGTQVTVSS” the “polyreactivity (PSR sort gate)” value was “high polyreactivity”.
In the case of “QVQLVESGGGLVQAGGSLRLSCAASGLTLSGYAMGWYRQAPGKERELVAAISSTGGSTYYADSVKGRFTISRDNAKNTVYLQMNSLKPEDTAVYYCAKGFSPTRVRLRYPRYDTYNHWGQGTQVTVSS”, the “polyreactivity (PSR sort gate)” value is reported as “high polyreactivity”.
In the case of “QVQLVESGGGLVQAGGSLRLSCAASGLTLSYNAMGWYRQAPGKERELVAAIRSGGSTNYADSVKGRFTISRDNAKNTVYLQMNSLKPEDTAVYYCAARFRYLPYRYGRYQSGYEYWGLGTQVTVSS”, the “polyreactivity (PSR sort gate)” value is reported as “high polyreactivity”.
In the case of “QVQLVESGGGLVQAGGSLRLSCAASGLTLTHYAMGWYRQAPGKERELVATISRSGGRTYYADSVKGRFTISRDNAKNTVYLQMNSLKPEDTAVYYCNAEYYYGRGWYDYWGQGTQVTVSS”, the “polyreactivity (PSR sort gate)” value is reported as “high polyreactivity”.
With “QVQLVESGGGLVQAGGSLRLSCAASGLTLYKNGMGWYRQAPGKERELVAVISRSGGRTYYADSVKGRFTISRDNAKNTVYVQMNSLKPEDTAVYYCAARQYGPRYTYYYWGQGTQVTVSS” the “polyreactivity (PSR sort gate)” value was “high polyreactivity”.
In the case of “QVQLVESGGGLVQAGGSLRLSCAASGLTSLSYAIGWYRQAPGKERELVAAITLSGCRTYYADSVKGRFTISRDNAKNTVYLQMNSLIPEDTAVYFCAVAGYWYSYGRKYLTTFEYWGQGTQVTVSS”, the “polyreactivity (PSR sort gate)” value is reported as “high polyreactivity”.
For “QVQLVESGGGLVQAGGSLRLSCAASGLTSNGYDMGWYRQAPGKERELVAGITSGGSPYYADSVKGRFTISRDNAKNTVYLQMNSLKPEDTAVYYCNADVTYYIVWEYDYWGQGTQVTVSS”, the “polyreactivity (PSR sort gate)” value was “low polyreactivity”.
For “QVQLVESGGGLVQAGGSLRLSCAASGLTSNGYHMGWYRQAPGKERELVAGITSGGSTYYADSVKGRFTISRDNAKNTVYLQMNSLKPEDTAVYYCNADVTYYIVWEYDYWGQGTQVTVSS”, the “polyreactivity (PSR sort gate)” value was “low polyreactivity”.
With “QVQLVESGGGLVQAGGSLRLSCAASGLTSWYYAMGWYRQAPGKERELVAAITSGGSTYYADSVKGRFTISRDNAKNTVYLQMNSLKPEDTAVYYCAKKKRSYYYYPYDYWGQGTQVTVSS” the “polyreactivity (PSR sort gate)” value was “high polyreactivity”.
With “QVQLVESGGGLVQAGGSLRLSCAASGLTYNRYTMGWYRQAPGKERELVAAITSSGSTYYADSVKGRFTISRDNAKYTVYLQMNSLKPEDTAVYYCNTVYYDWFHYDYWGQGTQVTVSS” the “polyreactivity (PSR sort gate)” value was “high polyreactivity”.
With “QVQLVESGGGLVQAGGSLRLSCAASGLTYSNAMGCYRQAPGKERELVAAISWRGGRTYYADSVKGRFTISRDNAKNTVYLQMNSLKPEDTAVYYCAKYAHGHKWYGYWGQGNQVTVSS” the “polyreactivity (PSR sort gate)” value was “low polyreactivity”.
In the case of “QVQLVESGGGLVQAGGSLRLSCAASGLYAMGWYRQAPGKERELVADINSSGGSITNYADSVKGRFTISRDNAKNTVYLQMNSLKPEDTAVYYCAAPALGNYFYGYDYWGQGTQVTVSS”, the “polyreactivity (PSR sort gate)” value is reported as “low polyreactivity”.
In the case of “QVQLVESGGGLVQAGGSLRLSCAASGMIFYTYVMGWYRQAPGKEREFVAGISTSGGRTDYADSVKGRFTISRDNAKNTVYLQMNSLKPEDTAVYYCNADYWQWYSYWYDYWGQGTQVTVSS”, the “polyreactivity (PSR sort gate)” value is reported as “high polyreactivity”.
For “QVQLVESGGGLVQAGGSLRLSCAASGMTFGLYAMGWYRQAPGKERELVAAISKRGGSTNYADSVKGRFTISRDNAKNTVYLQMNSLKPEDTAGYYCAARYPQRGTGKATYVRSRSGYWGLGTQVTVSS”, the “polyreactivity (PSR sort gate)” value was “high polyreactivity”.
For “QVQLVESGGGLVQAGGSLRLSCAASGNAMGWYRQAPGKERELVAAITYGGTTTYYADTVKGRFTISRDNAKNTVYLQMTSQKPEDTAVYYCAADNVSVATPLRYDYWGQGTQVTVSS”, the “polyreactivity (PSR sort gate)” value was “low polyreactivity”.
With “QVQLVESGGGLVQAGGSLRLSCAASGNAMGWYRQAPGKERELVASINRSGGRTYYADSVKGRFTISRDNAKNTVYLQMISLKPEDTAVYYCGARPHYDSDYWGQGTQVTVSS” the “polyreactivity (PSR sort gate)” value was “low polyreactivity”.
With “QVQLVESGGGLVQAGGSLRLSCAASGNIFADYVMGWYRQAPGKERELVAAIDKSGGRTYYADSVKGRFTISRDNAKNTVYLQMNSLKPEDTAVYYCSAYDRYRRMDYWGQGTQVTVSS” the “polyreactivity (PSR sort gate)” value was “high polyreactivity”.
For “QVQLVESGGGLVQAGGSLRLSCAASGNIFAIYAMGWYRPAPGKEREFVAAIDWSVASTYYADSVKGRFTISRDNAKNTVYLKMNSLKPEDTAVYYCAAELYCLKYGYYLSYDYWGQGTQVTVSS”, the “polyreactivity (PSR sort gate)” value was “high polyreactivity”.
For “QVQLVESGGGLVQAGGSLRLSCAASGNIFAIYARGWYRQAPGKEREFVAAIDWSVASTYYADSVKGRFTISRDNEKNTVYLQMNSLTPEDTAVYSSAAELYGLKYGYYLSYDYWGQGTQVTVSS”, the “polyreactivity (PSR sort gate)” value was “high polyreactivity”.
In the case of “QVQLVESGGGLVQAGGSLRLSCAASGNIFAYNAMGWYRQAPGKERELVASIRYSGGSTYYADSVKGRFTISRDNAKNTVYLQMNSLKPEDTAVYYCAKRGYSSYRTYNYWGQGTQVTVSS”, the “polyreactivity (PSR sort gate)” value is reported as “high polyreactivity”.
For “QVQLVESGGGLVQAGGSLRLSCAASGNIFDLYAMGWYRQAPGKERELVAAITRSSSRTYYADSVKGRFTISRDNAKNTVYLQMNSLKPEDTAVYYCAAKYSNGSGFDYWGQGTQVTVSS”, the “polyreactivity (PSR sort gate)” value was “high polyreactivity”.
With “QVQLVESGGGLVQAGGSLRLSCAASGNIFDRYAMGWYRQAPGKERELVAGITWSGGSTYYADSVKGRFTISRDNAKNTVYLQMNSLKPEDTAVYYCGEANYYWGHGTQVTVSS” the “polyreactivity (PSR sort gate)” value was “low polyreactivity”.
With “QVQLVESGGGLVQAGGSLRLSCAASGNIFDSNAMGWYRQAPGKERELVAAITWSGGSTYYADSVKGRFTISRDNAKNTVYLQMNSLKPEDTAVYYCNRYIRYYAWFGYWGQGTQVTVSS” the “polyreactivity (PSR sort gate)” value was “high polyreactivity”.
In the case of “QVQLVESGGGLVQAGGSLRLSCAASGNIFDTYVMGWYRPAPGTERELVAAISSAGSTNYADSVKGRFTISRDNAKNTVYLQMNSLKPEDTAVYYCNADYWYYGYDYWGQGTQVTVSS”, the “polyreactivity (PSR sort gate)” value is reported as “low polyreactivity”.
For “QVQLVESGGGLVQAGGSLRLSCAASGNIFESYGMGWYRHAPGKERELVATINTSSGSTYDADSVKGRFTISRDNAKNTVYLQMNSLKPEDTAVYYCAAEWYPYPWGYGYWGQGTQVTVSS”, the “polyreactivity (PSR sort gate)” value was “low polyreactivity”.
With “QVQLVESGGGLVQAGGSLRLSCAASGNIFETYAMGWYRQAPGKERELVAVITRGGSTYYADSVKGRFTISRDNAKNTVYLQMNSLKPEDTAVYYCARDAFDDWYGLTDDKSDYWGQGTQVTVSS” the “polyreactivity (PSR sort gate)” value was “low polyreactivity”.
With “QVQLVESGGGLVQAGGSLRLSCAASGNIFFGNAMGWYRQAPGKERELVAVISKRGGSTYYADSVKGRFTISRDNAKNTVYLQMNSLKPEDTAVYYCAKVPTSRGNQLQQDGTKYDYWGQGTQVTVSS” the “polyreactivity (PSR sort gate)” value was “high polyreactivity”.
For “QVQLVESGGGLVQAGGSLRLSCAASGNIFFTNAMGWYRQAPGKDRELVATISFRGTSTYYADSVKGRFTISRDNAKNTVYLQMNSLKPEDTAVYYCTARYSVFHRARVNLLGWGLYYWGQGTQVTVSS”, the “polyreactivity (PSR sort gate)” value was “low polyreactivity”.
With “QVQLVESGGGLVQAGGSLRLSCAASGNIFGAYAMGWYRQAPGKERELVARINSGAITNYADSVKGRFTISRDNAKNTVYLQMNSLKPEDTAVYYCNKDTYYAGSYLDYDYWGQGTQVTVSS” the “polyreactivity (PSR sort gate)” value was “low polyreactivity”.
In the case of “QVQLVESGGGLVQAGGSLRLSCAASGNIFGHYTRGWYRQAPAKERELVAAISRTGGRTYYADSVKGRFTISRDNAKNTVYLQMNSLKPEDTAVYDCDADKGGTYFNGDSWGQGTQVTVSS”, the “polyreactivity (PSR sort gate)” value is reported as “high polyreactivity”.

Reference: the nanobody polyreactivity screen of Harvey et al. (2022)
